Results reported in the supplement of paper PMC10065799, “High-throughput profiling of sequence recognition by tyrosine kinases and SH2 domains using bacterial peptide display” (eLife, 2023).

Tests used:
[1] = test system: AncSZ; experiment: phosphorylation enrichment, bacterial display (enrichment ratio); higher = better substrate or ligand; peptides without Tyr show the background
[2] = biological target: EPHB1 (UniProt P54762); experiment: as above
[3] = biological target: EPHB2 (UniProt P29323); experiment: as above
[4] = biological target: FGFR1 (UniProt P11362); experiment: as above
[5] = biological target: FGFR3 (UniProt P22607); experiment: as above
[6] = test system: Fer (mouse); experiment: as above
[7] = biological target: Fes (UniProt P07332); experiment: as above
[8] = biological target: Fyn (UniProt P06241); experiment: as above
[9] = biological target: Hck (UniProt P08631); experiment: as above
[10] = biological target: Jak2 (UniProt O60674); experiment: as above
[11] = biological target: MERTK (UniProt Q12866); experiment: as above
[12] = test system: c-Abl (mouse); experiment: as above
[13] = test system: c-Src; experiment: as above
[14] = biological target: Grb2 SH2 (UniProt P62993); experiment: SH2 binding enrichment of the phosphorylated peptide, bacterial display (enrichment ratio); higher = better substrate or ligand; peptides without Tyr show the background
[15] = biological target: SHP2-C SH2; experiment: as above
[16] = biological target: c-Src SH2; experiment: as above
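Throughout, for SH2 binding enrichment of the phosphorylated peptide, bacterial display: peptide library displayed on the E. coli surface as eCPX fusions, selected cells deep-sequenced, score is each peptide's frequency after selection divided by its frequency in the input.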
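Throughout, for phosphorylation enrichment, bacterial display: 11-residue human phosphosite peptides and single-mutation variants displayed on the E. coli surface, counted by deep sequencing, each peptide's frequency after selection divided by its frequency in the unselected input library; frequency after pTyr selection over input frequency; kinase dosed for 20-30% of maximal phosphorylation in three min.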

FGFR3, sequence (P22607 whole entry, looked up): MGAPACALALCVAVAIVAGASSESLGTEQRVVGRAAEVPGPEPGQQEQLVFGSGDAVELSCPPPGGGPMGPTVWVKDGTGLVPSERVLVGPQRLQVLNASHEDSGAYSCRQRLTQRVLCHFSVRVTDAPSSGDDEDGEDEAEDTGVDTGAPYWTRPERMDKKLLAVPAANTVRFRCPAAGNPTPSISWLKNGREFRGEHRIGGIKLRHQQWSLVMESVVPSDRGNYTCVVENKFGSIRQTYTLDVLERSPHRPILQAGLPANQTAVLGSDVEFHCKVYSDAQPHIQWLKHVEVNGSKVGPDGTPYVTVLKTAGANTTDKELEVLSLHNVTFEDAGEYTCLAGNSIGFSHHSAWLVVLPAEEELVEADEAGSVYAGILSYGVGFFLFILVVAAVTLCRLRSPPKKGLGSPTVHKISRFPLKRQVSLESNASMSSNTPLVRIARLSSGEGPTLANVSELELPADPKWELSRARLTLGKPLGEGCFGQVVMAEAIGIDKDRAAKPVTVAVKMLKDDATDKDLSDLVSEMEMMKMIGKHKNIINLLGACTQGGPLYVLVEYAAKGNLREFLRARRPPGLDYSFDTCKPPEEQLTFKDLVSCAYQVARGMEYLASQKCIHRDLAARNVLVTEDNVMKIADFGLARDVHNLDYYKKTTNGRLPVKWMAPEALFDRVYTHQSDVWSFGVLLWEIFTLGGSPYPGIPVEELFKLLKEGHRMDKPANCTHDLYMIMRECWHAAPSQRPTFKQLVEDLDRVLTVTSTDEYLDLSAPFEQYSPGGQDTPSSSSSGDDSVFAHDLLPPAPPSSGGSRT
Hck, sequence (P08631 whole entry, looked up): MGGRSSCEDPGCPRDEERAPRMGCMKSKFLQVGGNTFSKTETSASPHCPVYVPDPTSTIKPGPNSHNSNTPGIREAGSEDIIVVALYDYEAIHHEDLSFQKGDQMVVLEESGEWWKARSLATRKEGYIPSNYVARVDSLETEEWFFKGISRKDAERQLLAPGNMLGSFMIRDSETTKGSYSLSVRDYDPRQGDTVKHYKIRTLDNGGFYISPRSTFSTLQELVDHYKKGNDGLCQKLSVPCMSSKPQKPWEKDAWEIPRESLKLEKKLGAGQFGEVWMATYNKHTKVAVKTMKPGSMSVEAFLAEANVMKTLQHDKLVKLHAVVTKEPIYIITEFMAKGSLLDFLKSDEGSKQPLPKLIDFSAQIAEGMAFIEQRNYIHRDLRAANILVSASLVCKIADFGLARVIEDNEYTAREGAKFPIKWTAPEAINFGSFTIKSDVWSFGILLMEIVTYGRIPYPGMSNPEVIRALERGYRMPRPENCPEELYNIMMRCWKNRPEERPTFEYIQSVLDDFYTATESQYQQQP
MERTK, sequence (Q12866 whole entry, looked up): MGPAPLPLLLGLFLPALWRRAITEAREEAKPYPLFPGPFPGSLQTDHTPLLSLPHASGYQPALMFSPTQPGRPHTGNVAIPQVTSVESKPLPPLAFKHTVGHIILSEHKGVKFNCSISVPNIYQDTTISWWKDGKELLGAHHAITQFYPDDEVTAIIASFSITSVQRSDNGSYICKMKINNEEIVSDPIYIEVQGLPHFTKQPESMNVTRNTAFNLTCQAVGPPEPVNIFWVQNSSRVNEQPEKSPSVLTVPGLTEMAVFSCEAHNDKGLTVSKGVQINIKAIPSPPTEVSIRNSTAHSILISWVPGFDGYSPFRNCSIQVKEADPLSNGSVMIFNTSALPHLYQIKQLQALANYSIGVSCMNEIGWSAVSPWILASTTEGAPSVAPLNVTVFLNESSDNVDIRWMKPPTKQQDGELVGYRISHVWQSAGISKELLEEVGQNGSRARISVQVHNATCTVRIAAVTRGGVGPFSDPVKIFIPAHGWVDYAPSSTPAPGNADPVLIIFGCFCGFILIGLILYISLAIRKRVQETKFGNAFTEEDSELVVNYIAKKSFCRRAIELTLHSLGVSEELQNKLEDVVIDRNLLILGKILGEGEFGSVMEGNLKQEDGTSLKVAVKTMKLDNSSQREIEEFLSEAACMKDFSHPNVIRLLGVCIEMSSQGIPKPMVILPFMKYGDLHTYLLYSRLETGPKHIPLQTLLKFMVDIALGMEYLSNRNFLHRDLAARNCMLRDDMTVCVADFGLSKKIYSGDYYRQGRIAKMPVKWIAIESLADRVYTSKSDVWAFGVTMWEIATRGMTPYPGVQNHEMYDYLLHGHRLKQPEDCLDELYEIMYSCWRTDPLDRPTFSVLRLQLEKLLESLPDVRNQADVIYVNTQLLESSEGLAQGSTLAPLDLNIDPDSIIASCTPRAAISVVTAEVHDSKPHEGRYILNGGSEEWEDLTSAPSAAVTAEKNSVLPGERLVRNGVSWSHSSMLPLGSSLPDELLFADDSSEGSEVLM
Fyn, sequence (P06241 whole entry, looked up): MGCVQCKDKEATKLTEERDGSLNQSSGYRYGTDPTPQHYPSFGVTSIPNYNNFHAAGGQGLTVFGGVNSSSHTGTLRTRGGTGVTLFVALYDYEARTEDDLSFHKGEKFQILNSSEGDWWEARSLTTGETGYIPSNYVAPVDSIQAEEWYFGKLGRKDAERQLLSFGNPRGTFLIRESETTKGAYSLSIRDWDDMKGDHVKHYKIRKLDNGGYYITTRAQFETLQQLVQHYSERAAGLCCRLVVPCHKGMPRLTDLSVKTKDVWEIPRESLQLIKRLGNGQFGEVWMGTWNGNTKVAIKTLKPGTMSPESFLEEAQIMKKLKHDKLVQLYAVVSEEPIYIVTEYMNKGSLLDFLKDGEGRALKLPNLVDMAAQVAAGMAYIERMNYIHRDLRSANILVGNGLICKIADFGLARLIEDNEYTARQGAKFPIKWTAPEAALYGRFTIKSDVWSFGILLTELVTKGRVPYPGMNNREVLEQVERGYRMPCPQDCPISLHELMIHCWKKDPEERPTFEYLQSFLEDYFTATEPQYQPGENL
Jak2, sequence (O60674 whole entry, looked up): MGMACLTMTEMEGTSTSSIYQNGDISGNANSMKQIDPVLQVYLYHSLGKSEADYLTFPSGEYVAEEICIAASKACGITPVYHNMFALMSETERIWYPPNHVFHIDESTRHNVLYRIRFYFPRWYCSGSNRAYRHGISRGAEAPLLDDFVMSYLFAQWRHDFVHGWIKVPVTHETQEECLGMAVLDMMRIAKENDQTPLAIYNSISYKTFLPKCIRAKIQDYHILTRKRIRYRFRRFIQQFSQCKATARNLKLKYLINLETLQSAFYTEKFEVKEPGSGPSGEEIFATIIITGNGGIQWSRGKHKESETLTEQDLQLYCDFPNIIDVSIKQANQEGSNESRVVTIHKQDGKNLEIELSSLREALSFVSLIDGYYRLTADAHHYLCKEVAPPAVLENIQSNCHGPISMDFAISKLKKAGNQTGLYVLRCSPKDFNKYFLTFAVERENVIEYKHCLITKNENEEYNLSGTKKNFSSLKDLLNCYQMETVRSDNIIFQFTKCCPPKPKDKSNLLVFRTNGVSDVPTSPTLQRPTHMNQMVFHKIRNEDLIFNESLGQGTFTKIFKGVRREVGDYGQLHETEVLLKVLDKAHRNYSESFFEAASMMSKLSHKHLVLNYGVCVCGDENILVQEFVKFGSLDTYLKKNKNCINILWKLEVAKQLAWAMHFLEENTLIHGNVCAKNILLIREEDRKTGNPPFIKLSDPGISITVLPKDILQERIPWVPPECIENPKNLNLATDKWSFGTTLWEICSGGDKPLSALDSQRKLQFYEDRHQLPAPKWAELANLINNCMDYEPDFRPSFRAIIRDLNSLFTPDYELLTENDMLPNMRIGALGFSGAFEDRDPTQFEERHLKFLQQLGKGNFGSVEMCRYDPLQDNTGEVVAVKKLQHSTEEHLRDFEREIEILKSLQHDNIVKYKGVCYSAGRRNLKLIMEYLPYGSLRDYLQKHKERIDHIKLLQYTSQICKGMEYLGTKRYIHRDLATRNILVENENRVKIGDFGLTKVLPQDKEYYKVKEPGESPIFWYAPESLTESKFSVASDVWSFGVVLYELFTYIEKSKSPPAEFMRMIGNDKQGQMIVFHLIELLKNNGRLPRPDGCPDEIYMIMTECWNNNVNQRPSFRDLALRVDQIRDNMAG
EPHB2, sequence (P29323 whole entry, looked up): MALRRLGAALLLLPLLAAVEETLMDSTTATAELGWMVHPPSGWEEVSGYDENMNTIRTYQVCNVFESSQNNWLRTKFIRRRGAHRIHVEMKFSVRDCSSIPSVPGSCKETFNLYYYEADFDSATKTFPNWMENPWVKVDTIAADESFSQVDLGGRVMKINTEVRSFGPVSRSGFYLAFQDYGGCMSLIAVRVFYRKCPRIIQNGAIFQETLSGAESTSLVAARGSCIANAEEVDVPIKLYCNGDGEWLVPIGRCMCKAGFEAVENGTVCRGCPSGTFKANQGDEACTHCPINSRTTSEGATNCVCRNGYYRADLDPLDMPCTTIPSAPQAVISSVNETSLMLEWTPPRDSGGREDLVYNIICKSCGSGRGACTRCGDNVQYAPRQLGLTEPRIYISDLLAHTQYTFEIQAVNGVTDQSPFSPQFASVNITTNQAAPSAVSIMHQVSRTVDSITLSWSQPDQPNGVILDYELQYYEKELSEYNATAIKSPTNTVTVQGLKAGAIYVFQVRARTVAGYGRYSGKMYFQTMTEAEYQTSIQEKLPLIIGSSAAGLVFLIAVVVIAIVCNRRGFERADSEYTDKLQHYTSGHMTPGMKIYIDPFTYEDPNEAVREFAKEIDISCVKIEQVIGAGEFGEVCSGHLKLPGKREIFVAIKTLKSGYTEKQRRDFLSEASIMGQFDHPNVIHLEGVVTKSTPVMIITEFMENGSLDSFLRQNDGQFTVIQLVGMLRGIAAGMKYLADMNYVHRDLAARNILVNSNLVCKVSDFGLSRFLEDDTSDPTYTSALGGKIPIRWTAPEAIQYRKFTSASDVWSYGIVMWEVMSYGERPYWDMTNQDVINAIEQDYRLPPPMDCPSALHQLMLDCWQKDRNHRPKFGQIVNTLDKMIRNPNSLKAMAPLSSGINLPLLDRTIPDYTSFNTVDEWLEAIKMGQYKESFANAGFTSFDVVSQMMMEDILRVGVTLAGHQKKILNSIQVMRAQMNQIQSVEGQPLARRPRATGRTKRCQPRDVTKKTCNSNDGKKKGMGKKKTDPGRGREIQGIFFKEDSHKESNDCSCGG

SH2 binding enrichment [14]	SH2 binding enrichment [15]	SH2 binding enrichment [16]	Sequence	phosphorylation enrichment [1]	phosphorylation enrichment [2]	phosphorylation enrichment [3]	phosphorylation enrichment [4]	phosphorylation enrichment [5]	phosphorylation enrichment [6]	phosphorylation enrichment [7]	phosphorylation enrichment [8]	phosphorylation enrichment [9]	phosphorylation enrichment [10]	phosphorylation enrichment [11]	phosphorylation enrichment [12]	phosphorylation enrichment [13]
0.655	1.07	1.02	DGNTRYSTFSE [TKTL1_Y318_D315N]	0.789	0.473	0.48	0.402	0.533	0.383	0.969	0.319	0.418	1.01	0.339	0.746	0.569
0.878	0.78	0.516	FADIAYNFRHG [PAH_Y166_YF]	0.67	0.522	0.514	0.581	0.512	0.396	0.713	0.558	0.506	0.734	0.428	0.578	0.532
1.4	1.91	2.44	CSTIHYNFMCN [TP53_Y234_T230S_YF]	1.2	0.369	0.54	0.458	0.418	0.423	0.693	0.476	0.375	0.573	0.385	0.461	0.468
1.01	0.626	20.4	EADRKYEEVAH [TPM3_Y163_R168H]	1	0.587	0.423	0.493	0.633	0.521	1.04	0.506	0.531	0.938	0.474	0.703	0.421
0.834	0.611	0.456	KELALYDENWF [RPS19_Y48_P47L]	1.5	8.19	11.5	0.729	0.947	7.67	1.43	1.02	1.41	1.44	7.19	1.06	1.39
0.885	0.734	0.968	EWQQIYTYDSG [JUP_Y20_T19I]	1.6	1.69	0.971	6.84	5.58	4.55	1.18	8.85	6.09	1	7.85	0.75	6.89

Continued, sequence first:

Sequence	SH2 binding enrichment [14]	SH2 binding enrichment [15]	SH2 binding enrichment [16]	phosphorylation enrichment [1]	phosphorylation enrichment [2]	phosphorylation enrichment [3]	phosphorylation enrichment [4]	phosphorylation enrichment [5]	phosphorylation enrichment [6]	phosphorylation enrichment [7]	phosphorylation enrichment [8]	phosphorylation enrichment [9]	phosphorylation enrichment [10]	phosphorylation enrichment [11]	phosphorylation enrichment [12]	phosphorylation enrichment [13]
AQPHTYEEPGR [EPHA8_Y616_E612Q]	1.08	0.794	14.5	0.74	0.519	0.577	0.459	0.46	0.458	0.729	0.481	0.46	0.83	0.394	0.465	0.452
TDTQLYGRFGS [ITGA2B_Y384_G380D]	0.734	0.656	0.418	0.783	0.608	0.583	0.487	0.464	0.479	0.888	11.1	9.16	0.645	0.98	0.769	7.4
LIGRGYDDPEV [HSPA9_Y128_R127G]	0.772	0.635	2.39	1.54	0.695	0.802	0.828	0.894	0.669	1.88	0.975	0.931	0.868	0.602	0.756	0.567
LIFTNYEVGKD [GSTP1_Y112_A114V_YF]	0.887	0.784	0.739	2.14	1.58	1.78	1.17	1.46	1.17	2.21	1.18	1.1	1.94	0.983	1.3	0.825
SSWPDYVRPLP [HSPB1_Y54_G53D]	0.974	0.71	0.489	4.98	1.57	0.599	2.49	1.6	0.54	0.93	0.442	0.511	7.67	0.437	0.808	0.475
REVPVYTYSEP [FAM120B_Y368_D370Y]	0.853	0.614	3.29	3.86	3.19	2.33	1.56	1.81	12.9	1.82	9.05	4.16	1.13	5.36	1.97	5.2
LIHTKCPQLLP [AHCY_Y143_Y143C]	0.941	0.762	0.714	0.693	0.516	0.607	0.509	0.631	0.46	0.936	0.438	0.509	0.654	0.476	0.604	0.433
KANEYYPVVLI [ADAMTS18_Y765]	0.683	0.625	0.404	1.97	3.64	3.11	11.2	9.02	2.12	0.813	0.572	0.693	2.79	0.541	1.6	0.655
LYNQDYPIHSV [GATM_Y227]	1.02	0.788	0.481	1.17	0.866	1.03	2.26	1.44	0.732	1.23	1.31	0.966	0.984	0.771	0.86	0.901
DTKDDYSALSV [IL17RB_Y457_N458S]	0.956	0.771	0.609	1.05	0.627	0.663	0.715	0.828	0.642	1.09	0.56	0.661	0.928	0.441	0.815	0.473
GNEEAYGSSHI [FAM171B_Y522_R524S]	0.663	0.751	0.435	0.763	0.465	0.525	0.48	0.518	0.4	0.817	0.521	0.489	0.718	0.526	0.866	0.549
